# Numbered stars: 1 amine (or outer) side, 2 acyl side, 3 side chain; on linkers, the order of the positions; unused ones are H or OH. Bridge positions count the residues as written; N and C are the ends. Square brackets hold non-standard residues; d marks the D form. * marks the point of attachment. Ser(Bzl) = O-benzyl-serine, O=C([C@H](COCc1ccccc1)N[*:1])[*:2]; Pro(trans-4-NH2) = O=C([C@@H]1C[C@@H](N[*:3])CN1[*:1])[*:2]; Met(O2) = CS(=O)(=O)CC[C@H](N)C(=O)O; Hyp = O=C(O)[C@@H]1C[C@@H](O)CN1; Orn = NCCC[C@H](N)C(=O)O; NHcPr = C1CC1N*
# B1: Peptide No. 9: Ac-Arg-cyclo(Glu-Arg-D-Phe-Arg-Trp-Orn)-OH (peptide)
# peptide: Ac-RER[dF]RW[Orn]-OH
# modifications: lactam 2-7
# B2: Peptide No. 3: Ac-Arg-cyclo(Glu-His-D-Phe-Arg-Trp-Orn)-OH (peptide)
# peptide: Ac-REH[dF]RW[Orn]-OH
# modifications: lactam 2-7
# B3: Peptide No. 20: Ac-Arg-cyclo(Glu-Asn-D-Phe-Arg-Trp-Orn)-OH (peptide)
# peptide: Ac-REN[dF]RW[Orn]-OH
# modifications: lactam 2-7
# B4: Peptide No. 17: Ac-Arg-cyclo(Glu-Ser(Bzl)-D-Phe-Arg-Trp-Orn)-OH (peptide)
# peptide: Ac-RE[Ser(Bzl)][dF]RW[Orn]-OH
# modifications: lactam 2-7
# B5: Peptide No. 4: Ac-Arg-cyclo(Glu-His-D-Phe-Arg-Trp-Orn)-NH2 (peptide)
# peptide: Ac-REH[dF]RW[Orn]-NH2
# modifications: lactam 2-7
# B6: Peptide No. 14: Ac-Arg-cyclo(Glu-Hyp-D-Phe-Arg-Trp-Orn)-NH2 (peptide)
# peptide: Ac-RE[Hyp][dF]RW[Orn]-NH2
# modifications: lactam 2-7
# B7: Peptide No. 32: Ac-Arg-cyclo(Glu-Pro(4R-NH2)-D-Phe-Arg-Trp-Orn)-NH2 (peptide)
# peptide: Ac-RE[Pro(trans-4-NH2)][dF]RW[Orn]-NH2
# modifications: lactam 2-7
# B8: Peptide No. 19: Ac-Arg-cyclo(Glu-Gln-D-Phe-Arg-Trp-Orn)-NH-cycProp (peptide)
# peptide: Ac-REQ[dF]RW[Orn]-NHcPr
# modifications: lactam 2-7
# B9: Asp...Lys analog of peptide No. 21: Ac-cyclo(Asp-Gln-D-Phe-Arg-Trp-Lys)-NH2 (peptide)
# peptide: Ac-DQ[dF]RWK-NH2
# modifications: lactam 1-6
# SMILES: CC(=O)N[C@H]1CC(=O)NCCCC[C@@H](C(N)=O)NC(=O)[C@H](Cc2c[nH]c3ccccc23)NC(=O)[C@H](CCCNC(=N)N)NC(=O)[C@@H](Cc2ccccc2)NC(=O)[C@H](CCC(N)=O)NC1=O
# notes: also called Peptide Structure (Asp...Lys) in the row of No. 21
# B10: Asp...Lys analog of peptide No. 11: Ac-Arg-cyclo(Asp-Gln-D-Phe-Arg-Trp-Lys)-OH (peptide)
# peptide: Ac-RDQ[dF]RWK-OH
# modifications: lactam 2-7
# notes: also called Peptide Structure (Asp...Lys) in the row of No. 11
# B11: Asp...Lys analog of peptide No. 10: Ac-Arg-cyclo(Asp-Arg-D-Phe-Arg-Trp-Lys)-NH2 (peptide)
# peptide: Ac-RDR[dF]RWK-NH2
# modifications: lactam 2-7
# B12: Asp...Lys analog of peptide No. 16: Ac-Arg-cyclo(Asp-Lys-D-Phe-Arg-Trp-Lys)-NH2 (peptide)
# peptide: Ac-RDK[dF]RWK-NH2
# modifications: lactam 2-7
# notes: also called Peptide Structure (Asp...Lys) in the row of No. 16
# B13: Asp...Lys analog of peptide No. 13: Ac-Arg-cyclo(Asp-Met(O2)-D-Phe-Arg-Trp-Lys)-NH2 (peptide)
# peptide: Ac-RD[Met(O2)][dF]RWK-NH2
# modifications: lactam 2-7
# notes: also called Peptide Structure (Asp...Lys) in the row of No. 13
# B14: Asp...Lys analog of peptide No. 20: Ac-Arg-cyclo(Asp-Asn-D-Phe-Arg-Trp-Lys)-OH (peptide)
# peptide: Ac-RDN[dF]RWK-OH
# modifications: lactam 2-7
# notes: also called Peptide Structure (Asp...Lys) in the row of No. 20
# B15: Asp...Lys analog of peptide No. 32: Ac-Arg-cyclo(Asp-Pro(4R-NH2)-D-Phe-Arg-Trp-Lys)-NH2 (peptide)
# peptide: Ac-RD[Pro(trans-4-NH2)][dF]RWK-NH2
# modifications: lactam 2-7
# notes: also called Peptide Structure (Asp...Lys) in the row of No. 32
# B16: Asp...Lys analog of peptide No. 19: Ac-Arg-cyclo(Asp-Gln-D-Phe-Arg-Trp-Lys)-NH-cycProp (peptide)
# peptide: Ac-RDQ[dF]RWK-NHcPr
# modifications: lactam 2-7
# notes: also called Peptide Structure (Asp...Lys) in the row of No. 19
# B17: Asp...Lys analog of peptide No. 9: Ac-Arg-cyclo(Asp-Arg-D-Phe-Arg-Trp-Lys)-OH (peptide)
# peptide: Ac-RDR[dF]RWK-OH
# modifications: lactam 2-7
# B18: Asp...Lys analog of peptide No. 14: Ac-Arg-cyclo(Asp-Hyp-D-Phe-Arg-Trp-Lys)-NH2 (peptide)
# peptide: Ac-RD[Hyp][dF]RWK-NH2
# modifications: lactam 2-7
# notes: also called Peptide Structure (Asp...Lys) in the row of No. 14
# B19: Peptide No. 8: Ac-Arg-cyclo(Glu-Orn-D-Phe-Arg-Trp-Orn)-NH2 (peptide)
# peptide: Ac-RE[Orn][dF]RW[Orn]-NH2
# modifications: lactam 2-7
# B20: Peptide No. 1: Ac-Nle-cyclo(Glu-His-D-Phe-Arg-Trp-Orn)-OH (peptide)
# peptide: XEHFRWX
# modifications: N-terminal acetyl; Nle at 1; D-Phe at 4; Orn at 7; side-chain lactam Glu2-Orn7; C-terminal -OH
# B21: Asp...Lys analog of peptide No. 8: Ac-Arg-cyclo(Asp-Orn-D-Phe-Arg-Trp-Lys)-NH2 (peptide)
# peptide: Ac-RD[Orn][dF]RWK-NH2
# modifications: lactam 2-7
# B22: Asp...Lys analog of peptide No. 15: Ac-Arg-cyclo(Asp-Cit-D-Phe-Arg-Trp-Lys)-NH2 (peptide)
# peptide: RDXFRWK
# modifications: N-terminal acetyl; Cit (citrulline) at 3; D-Phe at 4; side-chain lactam Asp2-Lys7; C-terminal amide (-NH2)
# B23: Peptide No. 2: Ac-Nle-cyclo(Glu-His-D-Phe-Arg-Trp-Orn)-NH2 (peptide)
# peptide: XEHFRWX
# modifications: N-terminal acetyl; Nle at 1; D-Phe at 4; Orn at 7; side-chain lactam Glu2-Orn7; C-terminal amide (-NH2)
# Target: T1, human melanocortin-4 receptor (recombinant hMC4-R) (human, UniProt P32245 1-332)
# Experiment: cell-based or functional assay
# T1 sequence (P32245 whole entry): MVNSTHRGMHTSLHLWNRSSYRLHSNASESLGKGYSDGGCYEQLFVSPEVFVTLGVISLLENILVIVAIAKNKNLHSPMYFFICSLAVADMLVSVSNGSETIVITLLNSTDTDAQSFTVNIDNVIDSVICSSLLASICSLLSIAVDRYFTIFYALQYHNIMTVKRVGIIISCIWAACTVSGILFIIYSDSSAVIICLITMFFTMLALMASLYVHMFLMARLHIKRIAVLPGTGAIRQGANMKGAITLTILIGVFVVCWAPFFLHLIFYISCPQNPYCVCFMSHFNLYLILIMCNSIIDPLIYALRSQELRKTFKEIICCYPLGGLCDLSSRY
Binder,"Emax (%), cAMP","Ec50 (nM), cAMP"
B1,82%,
B2,83%,0.7 nM
B3,76%,12 nM
B4,55%,
B5,83%,0.2 nM
B6,104%,
B7,55%,
B8,91%,
B9,35%,148 nM
B10,80%,19 nM
B11,68%,
B12,97%,
B13,29%,35 nM
B14,73%,81 nM
B15,61%,
B16,79%,9 nM
B17,75%,
B18,39%,27 nM
B19,95%,0.4 nM
B20,97%,0.5 nM
B21,79%,0.8 nM
B22,69%,
B23,93%,0.1 nM

# Target: T1, human melanocortin-4 receptor …
# Experiment: competition with labelled NDP-α-MSH ([I125] or Eu), hMC4-R HEK-293 membranes
# Method: After incubation for 60 minutes at 37° C., the assay mixture was filtered and the membranes washed three times with ice-cold buffer. Filters were dried and counted in a gamma counter for bound radioactivity. […] Maximal specific binding (100%) was defined as the difference in radioactivity (cpm) bound to cell membranes in the absence and presence of 1 μM NDP-α-MSH. […] Ki values for test peptides of the present invention were determined using Graph-Pad Prism® curve-fitting software.
# After incubation for 90 minutes at 37° C., the reaction was stopped by filtration over AcroWell 96-well filter plates (Pall Life Sciences). The filter plates were washed 4 times with 200 μL of ice-cold phosphate-buffered saline. DELFIA Enhancement solution (PerkinElmer Life Sciences) was added to each well. The plates were incubated on a shaker for 15 minutes and read at 340 nm excitation and 615 nm emission wavelengths. Each assay was conducted in duplicate and mean values were utilized. Ki values were determined by curve-fitting with Graph-Pad Prism® software using a one-site fixed-slope competition binding model.
row,Binder,Ki
1,B2,24 nM
2,B3,167 nM
3,B4,6 nM
4,B5,1 nM
5,B7,6 nM
6,B9,99 nM
7,B10,115 nM
8,B12,30 nM
9,B13,7 nM
10,B14,100 nM
11,B15,5 nM
12,B16,64 nM
13,B18,4 nM
14,B19,9 nM
15,B23,0.1 nM

# From patent US20120077957A1 (PALATIN TECHNOLOGIES, published 2012)
